Experimental data from patent publication US20230025732A1 (INNATE PHARMA, published 2023).

Tests used:
[1] = target: T1, CD39 mutant 19 (human, UniProt P49961 1-510); assay: flow cytometry on Hek-293T cells transfected with CD39 mutant 19 (panel M19); antibody concentration not given on the sheet
T1 construct: expressed on Hek-293T cells; also called M19
T1 chain: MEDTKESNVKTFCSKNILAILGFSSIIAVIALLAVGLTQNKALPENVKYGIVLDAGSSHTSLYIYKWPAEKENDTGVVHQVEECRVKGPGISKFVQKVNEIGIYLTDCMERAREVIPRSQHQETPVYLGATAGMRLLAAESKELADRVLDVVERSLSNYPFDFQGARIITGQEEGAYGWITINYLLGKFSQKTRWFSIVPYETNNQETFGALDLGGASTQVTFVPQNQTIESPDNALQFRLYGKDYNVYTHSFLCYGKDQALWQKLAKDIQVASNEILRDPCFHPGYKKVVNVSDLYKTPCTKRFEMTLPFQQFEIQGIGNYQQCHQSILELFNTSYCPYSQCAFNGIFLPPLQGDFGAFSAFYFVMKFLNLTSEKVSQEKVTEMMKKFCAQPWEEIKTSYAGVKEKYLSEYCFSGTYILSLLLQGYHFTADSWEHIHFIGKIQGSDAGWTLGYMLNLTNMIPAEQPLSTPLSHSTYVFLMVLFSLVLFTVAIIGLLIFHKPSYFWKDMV
Text: Mutants were transfected in Hek-293T cells, as shown in the table 1, using numbering of SEQ ID NO: 1. […] Mutant 19 includes substitutions at residues R138, M139 and E142.

[2] = target: T2, human CD39 expressed at the cell surface (human, UniProt P49961 1-510); assay: flow cytometry, Ramos lymphoma cells, second set of experiments; Ramos cells, second set of experiments
T2 construct: On CHO transfectants, Hek-293T transfectants, Ramos and Mino tumor cells; also called huCD39; CHO-huCD39
T2 sequence: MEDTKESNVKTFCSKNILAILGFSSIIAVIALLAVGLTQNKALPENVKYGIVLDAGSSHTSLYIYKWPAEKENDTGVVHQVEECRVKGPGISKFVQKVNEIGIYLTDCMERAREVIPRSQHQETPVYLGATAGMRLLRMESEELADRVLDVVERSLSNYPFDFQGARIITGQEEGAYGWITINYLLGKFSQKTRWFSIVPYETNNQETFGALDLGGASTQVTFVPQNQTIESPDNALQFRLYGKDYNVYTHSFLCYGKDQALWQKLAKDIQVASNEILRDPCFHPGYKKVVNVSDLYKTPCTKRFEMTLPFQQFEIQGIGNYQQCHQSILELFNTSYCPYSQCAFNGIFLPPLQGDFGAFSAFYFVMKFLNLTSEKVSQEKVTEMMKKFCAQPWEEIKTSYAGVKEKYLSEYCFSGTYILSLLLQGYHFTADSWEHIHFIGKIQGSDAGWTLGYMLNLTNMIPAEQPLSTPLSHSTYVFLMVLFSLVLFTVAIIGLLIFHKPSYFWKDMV
Description: Cells were incubated with various concentration of unlabeled anti-CD39 antibody from 30 μg/ml to 5×10⁻⁴ μg/ml, for 30 minutes at 4° C. After washes, cells were incubated with Goat anti-mouse H+L labeled secondary antibody for 30 min at 4° C.

[3] = target: T3, Human CD39-L3, also known as NTPDase3 or ENTPD3 (human, UniProt O75355 44-485, limits assumed); assay: ELISA on coated recombinant human CD39-L3, panel huCD39 L3; no legend on the sheet, curve is I-394 by paragraph 85
T3 construct: Recombinant protein coated in ELISA
T3 sequence: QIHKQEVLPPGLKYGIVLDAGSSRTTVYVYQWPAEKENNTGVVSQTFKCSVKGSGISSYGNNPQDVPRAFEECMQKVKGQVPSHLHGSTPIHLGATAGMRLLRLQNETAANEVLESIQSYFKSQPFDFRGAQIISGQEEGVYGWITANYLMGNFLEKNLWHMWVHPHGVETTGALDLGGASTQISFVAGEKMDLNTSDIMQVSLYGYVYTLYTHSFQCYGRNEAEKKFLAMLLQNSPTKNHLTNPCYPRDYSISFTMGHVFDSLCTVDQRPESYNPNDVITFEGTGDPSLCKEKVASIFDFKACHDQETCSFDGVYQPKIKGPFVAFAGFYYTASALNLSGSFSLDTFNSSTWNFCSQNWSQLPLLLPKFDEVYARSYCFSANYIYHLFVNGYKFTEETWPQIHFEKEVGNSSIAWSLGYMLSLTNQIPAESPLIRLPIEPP
Description: (§1) Wells were washed in TBS Tween 20, and further saturated 2H at RT in TBS Blocking buffer. Dose range concentration of primary antibody was incubated in TBS blocking buffer for 2 h at RT. Wells were washed in TBS Tween 20. […] Optical density was measured on Enspire™ at OD=450.

[4] = target: T4, Human CD39-L2, also known as NTPDase6 or ENTPD6 (human, UniProt O75354 61-484, limits assumed); assay: ELISA on coated recombinant human CD39-L2, panel huCD39 L2; no legend on the sheet, curve is I-394 by paragraph 85
T4 construct: Recombinant protein coated in ELISA
T4 sequence: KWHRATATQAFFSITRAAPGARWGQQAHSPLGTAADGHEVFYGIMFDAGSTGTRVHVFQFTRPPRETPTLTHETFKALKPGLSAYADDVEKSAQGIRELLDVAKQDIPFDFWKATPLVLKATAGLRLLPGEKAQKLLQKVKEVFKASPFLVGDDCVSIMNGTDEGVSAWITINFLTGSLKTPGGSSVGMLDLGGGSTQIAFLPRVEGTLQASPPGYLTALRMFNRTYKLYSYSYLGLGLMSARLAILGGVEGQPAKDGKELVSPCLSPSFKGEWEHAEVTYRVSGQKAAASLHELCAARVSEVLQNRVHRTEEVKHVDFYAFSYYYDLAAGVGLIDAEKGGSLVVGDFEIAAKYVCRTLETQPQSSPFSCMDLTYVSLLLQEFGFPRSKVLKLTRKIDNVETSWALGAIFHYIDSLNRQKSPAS
Description: as §1

B1: I-394 (antibody, human IgG1, V domains shown)
VH: EVQLQQSGPELVKPGASVKMSCKASGYTFTDYNMHWVKQSHGRTLEWIGYIVPLNGGSTFNQKFKGRATLTVNTSSRTAYMELRSLTSEDSAAYYCARGGTRFAYWGQGTLVTVSA
VL: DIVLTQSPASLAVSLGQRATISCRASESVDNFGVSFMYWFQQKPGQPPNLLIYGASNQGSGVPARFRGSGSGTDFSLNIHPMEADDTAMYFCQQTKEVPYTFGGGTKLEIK
[1]
  binding result: no binding
[2]
  EC50: 0.19 µg/mL
[3]
  binding result: no binding (tested: about 50 µg/ml)
[4]
  binding result: no binding (tested: about 50 µg/ml)
